Patent US20060257938A1, “Method of screening for drugs that block ligand binding to a lipid binding protein” (priority 2005, published 2006)
Where “and” joins values, the source holds several entries; their conditions need not be identical. Equal values may be shown once.

Assays:
Assay type in all cases: binding
[1] = Probe fluorescence ratio response to palmitic acid relative to ADIFAB2; conditions: response relative to ADIFAB2
Procedure, shortened: (§1)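 Each fatty acid's response was expressed relative to ADIFAB2, the rI-FABP-L72A probe, as ΔR/ΔRreference. ΔR is the change in the background-corrected two-wavelength intensity ratio R=Fλ1/Fλ2 from its analyte-free baseline R0. Emission was read near about 420-480 nm for unbound and about 495-580 nm for FFA-bound probe.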

[2] = Probe fluorescence ratio response to arachidonic acid relative to ADIFAB2; conditions: arachidonic acid; response relative to ADIFAB2
Procedure, shortened: as §1

[3] = Probe fluorescence ratio response to oleic acid relative to ADIFAB2; conditions: response relative to ADIFAB2
Procedure, shortened: as §1

[4] = Probe fluorescence ratio response to linoleic acid relative to ADIFAB2; conditions: response relative to ADIFAB2
Procedure, shortened: as §1

[5] = Probe fluorescence ratio response to linolenic acid relative to ADIFAB2; conditions: response relative to ADIFAB2
Procedure, shortened: as §1

B1: 106L3, 72A (protein, listed as Rattus norvegicus)
chain: AFDGTWKVDRNENYEKFMEKMGINVVKRKLGAHDNLKLTITQEGNKFTVKESSNFRNIDVVFELGVDFAYSAADGTELTGTWTMEGNKLVGKFKRVDNGKELIAVLEISGNELIQTYTYEGVEAKRIFKKE
modifications: PEPTIDE (1)...(131) wild-type rat intestinal fatty acid binding protein
DR/DR PA [1]: 0.43
DR/DR AA [2]: 0.84
DR/DR OA [3]: 0.87
DR/DR LA [4]: 0.87
DR/DR LNA [5]: 0.84

B2: 106N1, 72A (protein, listed as Rattus norvegicus)
chain: AFDGTWKVDRNENYEKFMEKMGINVVKRKLGAHDNLKLTITQEGNKFTVKESSNFRNIDVVFELGVDFAYSAADGTELTGTWTMEGNKLVGKFKRVDNGKELIAVNEISGNELIQTYTYEGVEAKRIFKKE
modifications: PEPTIDE (1)...(131) wild-type rat intestinal fatty acid binding protein
DR/DR PA [1]: 0.15
DR/DR AA [2]: 0.38
DR/DR OA [3]: 0.50
DR/DR LA [4]: 0.45
DR/DR LNA [5]: 0.44

B3: 106T2, 72A (protein, listed as Rattus norvegicus)
chain: AFDGTWKVDRNENYEKFMEKMGINVVKRKLGAHDNLKLTITQEGNKFTVKESSNFRNIDVVFELGVDFAYSAADGTELTGTWTMEGNKLVGKFKRVDNGKELIAVTEISGNELIQTYTYEGVEAKRIFKKE
modifications: PEPTIDE (1)...(131) wild-type rat intestinal fatty acid binding protein
DR/DR PA [1]: 0.23
DR/DR AA [2]: 0.43
DR/DR OA [3]: 0.53
DR/DR LA [4]: 0.47
DR/DR LNA [5]: 0.58

B4: 115A1, 72A (protein, listed as Rattus norvegicus)
chain: AFDGTWKVDRNENYEKFMEKMGINVVKRKLGAHDNLKLTITQEGNKFTVKESSNFRNIDVVFELGVDFAYSAADGTELTGTWTMEGNKLVGKFKRVDNGKELIAVREISGNELIATYTYEGVEAKRIFKKE
modifications: PEPTIDE (1)...(131) wild-type rat intestinal fatty acid binding protein
DR/DR PA [1]: 1.11
DR/DR AA [2]: 1.17
DR/DR OA [3]: 1.20
DR/DR LA [4]: 1.22
DR/DR LNA [5]: 1.26

B5: 106V1, 72A (protein, listed as Rattus norvegicus)
chain: AFDGTWKVDRNENYEKFMEKMGINVVKRKLGAHDNLKLTITQEGNKFTVKESSNFRNIDVVFELGVDFAYSAADGTELTGTWTMEGNKLVGKFKRVDNGKELIAVVEISGNELIQTYTYEGVEAKRIFKKE
modifications: PEPTIDE (1)...(131) wild-type rat intestinal fatty acid binding protein
DR/DR PA [1]: 0.32
DR/DR AA [2]: 0.61
DR/DR OA [3]: 0.84
DR/DR LA [4]: 0.82
DR/DR LNA [5]: 0.82

B6: 106S2, 72A (protein, listed as Rattus norvegicus)
chain: AFDGTWKVDRNENYEKFMEKMGINVVKRKLGAHDNLKLTITQEGNKFTVKESSNFRNIDVVFELGVDFAYSAADGTELTGTWTMEGNKLVGKFKRVDNGKELIAVSEISGNELIQTYTYEGVEAKRIFKKE
modifications: PEPTIDE (1)...(131) wild-type rat intestinal fatty acid binding protein
DR/DR PA [1]: 0.15
DR/DR AA [2]: 0.32
DR/DR OA [3]: 0.48
DR/DR LA [4]: 0.36
DR/DR LNA [5]: 0.40

B7: 106Q, 72A (protein, listed as Rattus norvegicus)
chain: AFDGTWKVDRNENYEKFMEKMGINVVKRKLGAHDNLKLTITQEGNKFTVKESSNFRNIDVVFELGVDFAYSAADGTELTGTWTMEGNKLVGKFKRVDNGKELIAVQEISGNELIQTYTYEGVEAKRIFKKE
modifications: PEPTIDE (1)...(131) wild-type rat intestinal fatty acid binding protein
DR/DR PA [1]: 0.18
DR/DR AA [2]: 0.37
DR/DR OA [3]: 0.39
DR/DR LA [4]: 0.36
DR/DR LNA [5]: 0.38

B8: 113M, 72A (protein, listed as Rattus norvegicus)
chain: AFDGTWKVDRNENYEKFMEKMGINVVKRKLGAHDNLKLTITQEGNKFTVKESSNFRNIDVVFELGVDFAYSAADGTELTGTWTMEGNKLVGKFKRVDNGKELIAVREISGNEMIQTYTYEGVEAKRIFKKE
modifications: PEPTIDE (1)...(131) wild-type rat intestinal fatty acid binding protein
DR/DR PA [1]: 1.19
DR/DR AA [2]: 1.33
DR/DR OA [3]: 1.42
DR/DR LA [4]: 1.46
DR/DR LNA [5]: 1.38

B9: 106Y1, 72A (protein, listed as Rattus norvegicus)
chain: AFDGTWKVDRNENYEKFMEKMGINVVKRKLGAHDNLKLTITQEGNKFTVKESSNFRNIDVVFELGVDFAYSAADGTELTGTWTMEGNKLVGKFKRVDNGKELIAVYEISGNELIQTYTYEGVEAKRIFKKE
modifications: PEPTIDE (1)...(131) wild-type rat intestinal fatty acid binding protein
DR/DR PA [1]: 0.27
DR/DR AA [2]: 0.57
DR/DR OA [3]: 0.60
DR/DR LA [4]: 0.61
DR/DR LNA [5]: 0.60

B10: 106W, 72A (protein, listed as Rattus norvegicus)
chain: AFDGTWKVDRNENYEKFMEKMGINVVKRKLGAHDNLKLTITQEGNKFTVKESSNFRNIDVVFELGVDFAYSAADGTELTGTWTMEGNKLVGKFKRVDNGKELIAVWEISGNELIQTYTYEGVEAKRIFKKE
modifications: PEPTIDE (1)...(131) wild-type rat intestinal fatty acid binding protein
DR/DR PA [1]: 0.41 and 0.407
DR/DR AA [2]: 1.11 and 1.106
DR/DR OA [3]: 0.99 and 0.991
DR/DR LA [4]: 1.04 and 1.042
DR/DR LNA [5]: 1.03

B11: 115D1, 72A (protein, listed as Rattus norvegicus)
chain: AFDGTWKVDRNENYEKFMEKMGINVVKRKLGAHDNLKLTITQEGNKFTVKESSNFRNIDVVFELGVDFAYSAADGTELTGTWTMEGNKLVGKFKRVDNGKELIAVREISGNELIDTYTYEGVEAKRIFKKE
modifications: PEPTIDE (1)...(131) wild-type rat intestinal fatty acid binding protein
DR/DR PA [1]: 1.14
DR/DR AA [2]: 1.17
DR/DR OA [3]: 1.21
DR/DR LA [4]: 1.19
DR/DR LNA [5]: 1.20
